From US20200291118A1
Where two headings read alike, the source gives them in different places.

Target: hPD-1-hIgGFc antigen (human), Q15116
Test: ELISA on coated hPD-1-hIgGFc, ligand PD-L2-his tag 0.3 µg/ml detected; no antibody (row 'blank' under HX009-5)

hPD-1-hIgGFc antigen (human), Q15116, sequence (Q15116 25-167 limits assumed): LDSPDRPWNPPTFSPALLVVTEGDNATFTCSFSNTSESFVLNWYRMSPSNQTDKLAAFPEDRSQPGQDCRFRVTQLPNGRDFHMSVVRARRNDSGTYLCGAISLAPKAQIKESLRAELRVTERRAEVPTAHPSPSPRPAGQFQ

absorbance at 450 nm: 1.1
absorbance at 450 nm (remark: other sources report otherwise): 1.09
B1: PD-L2-his tag, Q9BQ51 20-220 (ligand, UniProt Q9BQ51 20-220, looked up, not shown: small tags and cut ends)
chain: LFTVTVPKELYIIEHGSNVTLECNFDTGSHVNLGAITASLQKVENDTSPHRERATLLEEQLPLGKASFHIPQVQVRDEGQYQCIIIYGVAWDYKYLTLKVKASYRKINTHILKVPETDEVELTCQATGYPLAEVSWPNVSVPANTSHSRTPEGLYQVTSVLRLKPPPGRNFSCVFWNTHVRELTLASIDLQSQMEPRTHPT
